Results from publication PMC12451834.

Target: RNA-binding protein EWS low-complexity domain (EWS^LCD, residues 1-264) (UniProt Q01844)
Assay: condensate partitioning assay

percent (w/w) co-partitioned into condensates with EWS^LCD: 53 % w/w
Substance: EWS^RRM-RGG2 (central RNA-binding region of EWS: RNA-recognition motif and RGG2 domain) (domain or fragment)
